Assay results reported in PMC6048055, “O2-inducible H2O2-forming NADPH oxidase is responsible for the hyper O2 sensitivity of Bifidobacterium longum subsp. infantis” (Scientific Reports, 2018).

Assays:
NADPH oxidase (NPOX) = target: T1, NADPH oxidase (NPOX) (Bifidobacterium longum, UniProt A0ACD7UUP8); experiment: HPLC of flavin extracted from purified enzyme; UV-Vis spectrum; format: binding; conditions: co-purified bound flavin, flavoprotein absorbance maxima […] nm
T1 construct: gene Blon_2447; native enzyme purified from B. infantis cells; 254 residues; 29 kDa by SDS-PAGE
T1 sequence (A0ACD7UUP8 52-305): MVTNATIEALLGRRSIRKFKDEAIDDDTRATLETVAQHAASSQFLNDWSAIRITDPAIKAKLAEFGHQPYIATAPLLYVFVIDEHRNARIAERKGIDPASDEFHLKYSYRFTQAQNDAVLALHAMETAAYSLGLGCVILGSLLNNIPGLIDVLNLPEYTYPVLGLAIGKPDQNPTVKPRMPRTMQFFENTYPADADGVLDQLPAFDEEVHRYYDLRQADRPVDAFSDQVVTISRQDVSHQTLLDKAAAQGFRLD

[1] = test system: NC(=O)C1=CN([C@@H]2O[C@H](COP(=O)(O)OP(=O)(O)OC[C@H]3O[C@@H](n4cnc5c(N)ncnc54)[C@H](O)[C@@H]3O)[C@@H](O)[C@H]2O)C=CC1; experiment: purified protein; conditions: O2 as electron acceptor (air saturated), 50 mM potassium phosphate pH 6.5, 37 °C, apparent Km
[2] = test system: NC(=O)C1=CN([C@@H]2O[C@H](COP(=O)(O)OP(=O)(O)OC[C@H]3O[C@@H](n4cnc5c(N)ncnc54)[C@H](OP(=O)(O)O)[C@@H]3O)[C@@H](O)[C@H]2O)C=CC1; experiment: purified protein; conditions: O2 as electron acceptor (air saturated), 50 mM potassium phosphate pH 6.5, 37 °C, apparent Km

Compound | HPLC of flavin extracted from purified enzyme; UV-Vis spectrum (NADPH oxidase (NPOX)) | Km [1] [µM] | Km [2] [µM]
Cc1cc2nc3c(=O)[nH]c(=O)nc-3n(C[C@H](O)[C@H](O)[C@H](O)COP(=O)(O)O)c2cc1C [FMN] | The bound flavin was identified as FMN by HPLC analysis | – | –
NADPH oxidase (NPOX) (Bifidobacterium longum subsp. infantis ATCC 15697 = JCM 1222 = DSM 20088) | – | 113.3 ± 7.3 | 1.38 ± 0.12
